Three molecules from doi:10.1101/2024.02.22.580433 (bioRxiv, 2024) can be followed below.

Changes are numbered by the printed parent chain. Numbers in names are those of the source.

The target in series [1] is gp275-do, the minimal MC1 domain of gp275 (Acanthamoeba polyphaga mimivirus) (UniProt Q5UPU2). The series can be described thus: SEC.
Series [2] deals with the molecule itself. The series can be described thus: SEC. (In general: SEC sorts molecules by how far they enter the pores of the column.)

A word on the stoichiometry N: it is the number of molecules, sites or subunits per partner or assembly. “gp275-do, the minimal MC1 domain of gp275 (from UniProt Q5UPU2 97-228) (domain or fragment)” returned a stoichiometry N in series [1] of 2.

B1: Acanthamoeba polyphaga mimivirus gp275 (encoded by gene R252) (natural protein, UniProt Q5UPU2 1-278, looked up)
chain: MMIHIHQDKKMSTRSNKKSTKTEKVAKATKPVENVEVSDNEVQEQAVKTKASGKKVTAKSTKQSGGKNAKSGSKSAKSGSKSAKSGSKTSKTQSGGKGDESRDRYFKLIDAKTGRSFGRYTGGTPKQAASKGFTKMIHKIKAEGGALPKNGTMKIYLRESTRGSPRKVYAYEATRKQLTEPQKIEIEGSDGKKKVITYRYRNVIHKVSAPLPNQLGGLKTSRSNKKSGETKKSGSRSSGSKRSAKPTKSAKNAKSTGNKKVSTKSAGAKKAPAAKASR
Regarding B1, the “stoichiometry N” value in series [2] is 4.

B2: gp275-K126A (natural protein, Acanthamoeba polyphaga mimivirus, UniProt Q5UPU2 1-278, looked up)
chain: B1 chain with K126A
On to B2, for which, in series [2], the “stoichiometry N” value is 4.
